System: AAVS1 locus
Test: HDI of GFP cDNA at AAVS1 locus, FACS analysis, HEK293 cells
Type: cell-based, human

B1: HE3: Cas9 fused to HE3 (166-296 aa of CtIP; SEQ ID NO. 14) containing the 3 CDK phosphorylation sites (protein, UniProt Q99708 166-296, looked up, fragment)
chain: TAFSFSGVNRLRRKENPHVRYIEQTHTKLEHSVCANEMRKVSKSSTHPQHNPNENEILVADTYDQSQSPMAKAHGTSSYTPDKSSFNLATVVAETLGLGVQEESETQGPMSPLGDELYHCLEGNHKKQPFE
modifications: fused to Cas9
notes: Cas9 fused to HE3 (166-296 aa of CtIP; 14) containing the 3 CDK phosphorylation sites
HDI of GFP cDNA (homology-directed insertion of the GFP donor): HE1 was the only fragment shown to significantly stimulate

B2: HE2: Cas9 fused to HE2 (46-296 aa of CtIP; SEQ ID NO. 13), lacking the first 45 aa (protein, UniProt Q99708 46-296, looked up, fragment)
chain: KQERILDAQRLEEFFTKNQQLREQQKVLHETIKVLEDRLRAGLCDRCAVTEEHMRKKQQEFENIRQQNLKLITELMNERNTLQEENKKLSEQLQQKIENDQQHQAAELECEEDVIPDSPITAFSFSGVNRLRRKENPHVRYIEQTHTKLEHSVCANEMRKVSKSSTHPQHNPNENEILVADTYDQSQSPMAKAHGTSSYTPDKSSFNLATVVAETLGLGVQEESETQGPMSPLGDELYHCLEGNHKKQPFE
modifications: fused to Cas9
notes: Cas9 fused to HE2 (46-296 aa of CtIP; 13), lacking the first 45 aa
HDI of GFP cDNA (homology-directed insertion of the GFP donor): HE1 was the only fragment shown to significantly stimulate
